In patent publication US20220372093A1 (CUE BIOPHARMA, published 2022) one finds Kd data, which are given here for 16 molecules.

The target of assay [1] is T1, TGF-β1 (Homo sapiens, UniProt P01137).
T1 construct: also called transforming growth factor beta 1
Description: not stated on the sheet; drawn table of Kd of TβRII variants (paragraph 345 cites Groppe et al. 2008 and De Crescenzo et al. 2006).

Assay [2] concerns the target T2, TGF-β3 (Homo sapiens, UniProt P10600).
T2 construct: also called transforming growth factor beta 3
T2 sequence (TGF-β3 polypeptide, looked up): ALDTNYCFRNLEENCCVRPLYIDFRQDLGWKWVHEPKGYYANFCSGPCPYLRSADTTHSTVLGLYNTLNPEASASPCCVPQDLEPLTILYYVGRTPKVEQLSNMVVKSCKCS
The description is as above.

Numbering of substitutions follows the chain as printed. Numbers in names are those of the source.

T1 sequence (P01137 279-390 limits assumed): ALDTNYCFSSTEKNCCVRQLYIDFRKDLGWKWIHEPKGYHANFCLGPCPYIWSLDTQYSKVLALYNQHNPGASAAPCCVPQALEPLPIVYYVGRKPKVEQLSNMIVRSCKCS

B1: Δ14 (receptor)
TβRII polypeptide: VTDNNGAVKFPQLCKFCDVRFSTCDNQKSCMSNCSITSICEKPQEVCVAVWRKNDENITLETVCHDPKLPYHDFILEDAASPKCIMKEKKKPGETFFMCSCSSDECNDNIIFSEEYNTSNPD
notes: also called TβRII Δ14 (N-terminal aas 1-14 deleted)
What is called Kd is a measure of binding affinity in units of concentration. Read a high Kd as weaker binding. For the molecule B1, the Kd in assay [1] came to 320 nM; in assay [2], 680 nM.

B2: D32A (receptor)
TβRII polypeptide: IPPHVQKSVNNDMIVTDNNGAVKFPQLCKFCAVRFSTCDNQKSCMSNCSITSICEKPQEVCVAVWRKNDENITLETVCHDPKLPYHDFILEDAASPKCIMKEKKKPGETFFMCSCSSDECNDNIIFSEEYNTSNPDLLLVIFQ
notes: also called TβRII D32A
For B2, in assay [1], the Kd was found to be 3520 nM. This counts as single-digit micromolar.

B3: V77A (receptor)
TβRII polypeptide: B2 TβRII polypeptide with A32D, V77A
notes: also called TβRII V77A
As for B3, in assay [1], binding was put at a Kd of 690 nM.

B4: L27A (receptor)
TβRII polypeptide: B2 TβRII polypeptide with L27A, A32D
notes: also called TβRII L27A
In assay [1], B4 registered a dissociation constant Kd of 7970 nM.

B5: D32N (receptor)
TβRII polypeptide: B2 TβRII polypeptide with A32N
notes: also called TβRII D32N
The molecule B5 showed a Kd in assay [1] of 5900 nM.

B6: I50A (receptor)
TβRII polypeptide: B2 TβRII polypeptide with A32D, I50A
notes: also called TβRII I50A
B6 displayed a Kd in assay [1] of 7960 nM.

B7: D118A (receptor)
TβRII polypeptide: B2 TβRII polypeptide with A32D, D118A
notes: also called TβRII D118A
In turn, B7 came in with a Kd in assay [1] of 1510 nM.

B8: E119Q (receptor)
TβRII polypeptide: B2 TβRII polypeptide with A32D, E119Q
notes: also called TβRII E119Q
Turning to B8, binding in assay [1] was characterised by a dissociation constant (Kd) of 5950 nM.

B9: I53A (receptor)
TβRII polypeptide: B2 TβRII polypeptide with A32D, I53A
notes: also called TβRII I53A
B9: the affinity in assay [1], expressed as Kd, was 2490 nM.

B10: F30A (receptor)
TβRII polypeptide: B2 TβRII polypeptide with F30A, A32D
notes: also called TβRII F30A
In turn, B10 displayed a Kd in assay [1] of 44000 nM.

B11: E55A (receptor)
TβRII polypeptide: B2 TβRII polypeptide with A32D, E55A
notes: also called TβRII E55A
B11: in assay [1], the Kd is 2990 nM.

B12: S49A (receptor)
TβRII polypeptide: B2 TβRII polypeptide with A32D, S49A
notes: also called TβRII S49A
On to B12, for which the affinity in assay [1], expressed as Kd, was 790 nM.

B13: S52L (receptor)
TβRII polypeptide: B2 TβRII polypeptide with A32D, S52L
notes: also called TβRII S52L
Turning to B13, the affinity in assay [1], expressed as Kd, was 154000 nM.

B14: E119A (receptor)
TβRII polypeptide: B2 TβRII polypeptide with A32D, E119A
notes: also called TβRII E119A
The molecule B14 displayed a Kd in assay [1] of 3350 nM.

B15: S52A (receptor)
TβRII polypeptide: B2 TβRII polypeptide with A32D, S52A
notes: also called TβRII S52A
Consider B15, for which the Kd in assay [1] amounted to 600 nM.

B16: T51A (receptor)
TβRII polypeptide: B2 TβRII polypeptide with A32D, T51A
notes: also called TβRII T51A
Turning to B16, binding in assay [1] was put at a Kd of 2970 nM.
